What was measured:
HeLa Kyoto [1] = test: solubility change mitosis vs G1/S (difference of NP-40 vs SDS log2 ratios) (log2 ratio difference); higher = more soluble in mitosis
HeLa Kyoto [2] = test: solubility in G1/S (NP-40 vs SDS abundance) (log2 ratio); higher = more soluble; settings: cell cycle stage: G1/S
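Throughout, for solubility change mitosis vs G1/S (difference of NP-40 vs SDS log2 ratios): synchronized HeLa Kyoto cells (double thymidine block for G1/S, nocodazole release for mitosis), protein amounts in NP-40 versus SDS lysates quantified by mass spectrometry, three biological replicates.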
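Throughout, for solubility in G1/S (NP-40 vs SDS abundance): HeLa Kyoto cells arrested at G1/S by double thymidine block, proteins quantified by TMT10plex mass spectrometry in mild NP-40 versus SDS extracts, three biological replicates.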

Sequence	solubility change mitosis (log2) (HeLa Kyoto [1])	solubility in G1/S (log2) (HeLa Kyoto [2])
MATAPGPAGIAMGSVGSLLERQDFSPEELRAALAGSRGSRQPDGLLRKGLGQREFLSYLHLPKKDSKSTKNTKRAPRNEPADYATLYYREHSRAGDFSKTSLPERGRFDKCRIRPSVFKPTAGNGKGFLSMQSLASHKGQKLWRSNGSLHTLACHPPLSPGPRASQARAQLLHALSLDEGGPEPEPSLSDSSSGGSFGRSPGTGPSPFSSSLGHLNHLGGSLDRASQGPKEAGPPAVLSCLPEPPPPYEFSCSSAEEMGAVLPETCEELKRGLGDEDGSNPFTQVLEERQRLWLAELKRLYVERLHEVTQKAERSERNLQLQLFMAQQEQRRLRKELRAQQGLAPEPRAPGTLPEADPSARPEEEARWEVCQKTAEISLLKQQLREAQAELAQKLAEIFSLKTQLRGSRAQAQAQDAELVRLREAVRSLQEQAPREEAPGSCETDDCKSRGLLGEAGGSEARDSAEQLRAELLQERLRGQEQALRFEQERRTWQEEKERVLRYQREIQGGYMDMYRRNQALEQELRALREPPTPWSPRLESSKI [N4BP3]	0.334	0.203
MAGNKGRGRAAYTFNIEAVGFSKGEKLPDVVLKPPPLFPDTDYKPVPLKTGEGEEYMLALKQELRETMKRMPYFIETPEERQDIERYSKRYMKVYKEEWIPDWRRLPREMMPRNKCKKAGPKPKKAKDAGKGTPLTNTEDVLKKMEELEKRGDGEKSDEENEEKEGSKEKSKEGDDDDDDDAAEQEEYDEEEQEEENDYINSYFEDGDDFGADSDDNMDEATY [POLR3G]	-0.0224	0.214
MKGGNADSWQREKLASMESPEEPGASMDENYFVNYTFKDRSHSGRVAQGIMKLCLEEELFADVTISVEGREFQLHRLVLSAQSCFFRSMFTSNLKEAHNRVIVLQDVSESVFQLLVDYIYHGTVKLRAEELQEIYEVSDMYQLTSLFEECSRFLARTVQVGNCLQVMWLADRHSDPELYTAAKHCAKTHLAQLQNTEEFLHLPHRLLTDIISDGVPCSQNPTEAIEAWINFNKEEREAFAESLRTSLKEIGENVHIYLIGKESSRTHSLAVSLHCAEDDSISVSGQNSLCHQITAACKHGGDLYVVGGSIPRRMWKCNNATVDWEWCAPLPRDRLQHTLVSVPGKDAIYSLGGKTLQDTLSNAVIYYRVGDNVWTETTQLEVAVSGAAGANLNGIIYLLGGEENDLDFFTKPSRLIQCFDTETDKCHVKPYVLPFAGRMHAAVHKDLVFIVAEGDSLVCYNPLLDSFTRLCLPEAWSSAPSLWKIASCNGSIYVFRDRYKKGDANTYKLDPATSAVTVTRGIKVLLTNLQFVLA [KBTBD4]	-0.161	-0.0904
MDPSADTWDLFSPLISLWINRFYIYLGFAVSISLWICVQIVIKTQGKNLQEKSVPKAAQDLMTNGYVSLQEKDIFVSGVKIFYGSQTGTAKGFATVLAEAVTSLDLPVAIINLKEYDPDDHLIEEVTSKNVCVFLVATYTDGLPTESAEWFCKWLEEASIDFRFGKTYLKGMRYAVFGLGNSAYASHFNKVGKNVDKWLWMLGAHRVMSRGEGDCDVVKSKHGSIEADFRAWKTKFISQLQALQKGERKKSCGGHCKKGKCESHQHGSEEREEGSHEQDELHHRDTEEEEPFESSSEEEFGGEDHQSLNSIVDVEDLGKIMDHVKKEKREKEQQEEKSGLFRNMGRNEDGERRAMITPALREALTKQGYQLIGSHSGVKLCRWTKSMLRGRGGCYKHTFYGIESHRCMETTPSLACANKCVFCWRHHTNPVGTEWRWKMDQPEMILKEAIENHQNMIKQFKGVPGVKAERFEEGMTVKHCALSLVGEPIMYPEINRFLKLLHQCKISSFLVTNAQFPAEIRNLEPVTQLYVSVDASTKDSLKKIDRPLFKDFWQRFLDSLKALAVKQQRTVYRLTLVKAWNVDELQAYAQLVSLGNPDFIEVKGVTYCGESSASSLTMAHVPWHEEVVQFVHELVDLIPEYEIACEHEHSNCLLIAHRKFKIGGEWWTWIDYNRFQELIQEYEDSGGSKTFSAKDYMARTPHWALFGASERGFDPKDTRHQRKNKSKAISGC [TYW1]	-0.205	-0.157
MEDERSFSDICGGRLALQRRYYSPSCREFCLSCPRLSLRSLTAVTCTVWLAAYGLFTLCENSMILSAAIFITLLGLLGYLHFVKIDQETLLIIDSLGIQMTSSYASGKESTTFIEMGKVKDIVINEAIYMQKVIYYLCILLKDPVEPHGISQVVPVFQSAKPRLDCLIEVYRSCQEILAHQKATSTSP [PIGH]	0.146	-0.116
MGRAVKVLQLFKTLHRTRQQVFKNDARALEAARIKINEEFKNNKSETSSKKIEELMKIGSDVELLLRTSVIQGIHTDHNTLKLVPRKDLLVENVPYCDAPTQKQ [LYRM7]	0.302	0.581
MYFLSGWPKRLLCPLGSPAEAPFHVQSDPQRAFFAVLAAARLSIWYSRPSVLIVTYKEPAKSSTQFGSYKQAEWRPDSTMIAVSTANGYILFFHITSTRGDKYLYEPVYPKGSPQMKGTPHFKEEQCAPALNLEMRKILDLQAPIMSLQSVLEDLLVATSDGLLHLIHWEGMTNGRKAINLCTVPFSVDLQSSRVGSFLGFTDVHIRDMEYCATLDGFAVVFNDGKVGFITPVSSRFTAEQLHGVWPQDVVDGTCVAVNNKYRLMAFGCVSGSVQVYTIDNSTGAMLLSHKLELTAKQYPDIWNKTGAVKLMRWSPDNSVVIVTWEYGGLSLWSVFGAQLICTLGGDFAYRSDGTKKDPLKINSMSWGAEGYHLWVISGFGSQNTEIESDLRSVVKQPSILLFQFIKSVLTVNPCMSNQEQVLLQGEDRLYLNCGEASQTQNPRSSSTHSEHKPSREKSPFADGGLESQGLSTLLGHRHWHVVQISSTYLESNWPIRFSAIDKLGQNIAVVGKFGFAHYSLLTKKWKLFGNITQEQNMIVTGGLAWWNDFMVLACYNINDRQEELRVYLRTSNLDNAFAHVTKAQAETLLLSVFQDMVIVFRADCSICLYSIERKSDGPNTTAGIQVLQEVSMSRYIPHPFLVVSVTLTSVSTENGITLKMPQQARGAESIMLNLAGQLIMMQRDRSGPQIREKDSNPNNQRKLLPFCPPVVLAQSVENVWTTCRANKQKRHLLEALWLSCGGAGMKVWLPLFPRDHRKPHSFLSQRIMLPFHINIYPLAVLFEDALVLGAVNDTLLYDSLYTRNNAREQLEVLFPFCVVERTSQIYLHHILRQLLVRNLGEQALLLAQSCATLPYFPHVLELMLHEVLEEEATSREPIPDPLLPTVAKFITEFPLFLQTVVHCARKTEYALWNYLFAAVGNPKDLFEECLMAQDLDTAASYLIILQNMEVPAVSRQHATLLFNTALEQGKWDLCRHMIRFLKAIGSGESETPPSTPTAQEPSSSGGFEFFRNRSISLSQSAENVPASKFSLQKTLSMPSGPSGKRWSKDSDCAENMYIDMMLWRHARRLLEDVRLKDLGCFAAQLGFELISWLCKERTRAARVDNFVIALKRLHKDFLWPLPIIPASSISSPFKNGKYRTVGEQLLKSQSADPFLNLEMDAGISNIQRSQSWLSNIGPTHHEIDTASSHGPQMQDAFLSPLSNKGDECSIGSATDLTESSSMVDGDWTMVDENFSTLSLTQSELEHISMELASKGPHKSQVQLRYLLHIFMEAGCLDWCIVIGLILRESSIINQILVITQSSEVDGEMLQNIKTGLHAVDRWASTDCPGYKPFLNIIKPQLQKLSEITEEQVQPDAFQPITMGKTPEQTSPRAEESRGSSSHGSIPQGEVGSSNMVSRKEEDTAQAEEEEPFQDGTYDCSVS [RIC1]	0.129	-0.168
MAAAAASGAGGAAGAGTGGAGPAGRLLPPPAPGSPAAPAAVSPAAGQPRPPAPASRGPMPARIGYYEIDRTIGKGNFAVVKRATHLVTKAKVAIKIIDKTQLDEENLKKIFREVQIMKMLCHPHIIRLYQVMETERMIYLVTEYASGGEIFDHLVAHGRMAEKEARRKFKQIVTAVYFCHCRNIVHRDLKAENLLLDANLNIKIADFGFSNLFTPGQLLKTWCGSPPYAAPELFEGKEYDGPKVDIWSLGVVLYVLVCGALPFDGSTLQNLRARVLSGKFRIPFFMSTECEHLIRHMLVLDPNKRLSMEQICKHKWMKLGDADPNFDRLIAECQQLKEERQVDPLNEDVLLAMEDMGLDKEQTLQSLRSDAYDHYSAIYSLLCDRHKRHKTLRLGALPSMPRALAFQAPVNIQAEQAGTAMNISVPQVQLINPENQIVEPDGTLNLDSDEGEEPSPEALVRYLSMRRHTVGVADPRTEVMEDLQKLLPGFPGVNPQAPFLQVAPNVNFMHNLLPMQNLQPTGQLEYKEQSLLQPPTLQLLNGMGPLGRRASDGGANIQLHAQQLLKRPRGPSPLVTMTPAVPAVTPVDEESSDGEPDQEAVQSSTYKDSNTLHLPTERFSPVRRFSDGAASIQAFKAHLEKMGNNSSIKQLQQECEQLQKMYGGQIDERTLEKTQQQHMLYQQEQHHQILQQQIQDSICPPQPSPPLQAACENQPALLTHQLQRLRIQPSSPPPNHPNNHLFRQPSNSPPPMSSAMIQPHGAASSSQFQGLPSRSAIFQQQPENCSSPPNVALTCLGMQQPAQSQQVTIQVQEPVDMLSNMPGTAAGSSGRGISISPSAGQMQMQHRTNLMATLSYGHRPLSKQLSADSAEAHSLNVNRFSPANYDQAHLHPHLFSDQSRGSPSSYSPSTGVGFSPTQALKVPPLDQFPTFPPSAHQQPPHYTTSALQQALLSPTPPDYTRHQQVPHILQGLLSPRHSLTGHSDIRLPPTEFAQLIKRQQQQRQQQQQQQQQQEYQELFRHMNQGDAGSLAPSLGGQSMTERQALSYQNADSYHHHTSPQHLLQIRAQECVSQASSPTPPHGYAHQPALMHSESMEEDCSCEGAKDGFQDSKSSSTLTKGCHDSPLLLSTGGPGDPESLLGTVSHAQELGIHPYGHQPTAAFSKNKVPSREPVIGNCMDRSSPGQAVELPDHNGLGYPARPSVHEHHRPRALQRHHTIQNSDDAYVQLDNLPGMSLVAGKALSSARMSDAVLSQSSLMGSQQFQDGENEECGASLGGHEHPDLSDGSQHLNSSCYPSTCITDILLSYKHPEVSFSMEQAGV [SIK3]	0.04	-0.387
MFSAGAESLLHQAREIQDEELKKFCSRICKLLQAEDLGPDTLDSLQRLFLIISATKYSRRLEKTCVDLLQATLGLPACPEQLQVLCAAILREMSPSDSLSLAWDHTQNSRQLSLVASVLLAQGDRNEEVRAVGQGVLRALESRQPEGPSLRHLLPVMAKVVVLSPGTLQEDQATLLSKRLVDWLRYASLQQGLPHSGGFFSTPRARQPGPVTEVDGAVATDFFTVLSSGHRFTDDQWLNVQAFSMLRAWLLHSGPEGPGTLDTDDRSEQEGSTLSVISATSSAGRLLPPRERLREVAFEYCQRLIEQSNRRALRKGDSDLQKACLVEAVLVLDVLCRQDPSFLYRSLSCLKALHGRVRGDPASVRVLLPLAHFFLSHGEAAAVDSEAVYQHLFTRIPVEQFHSPMLAFEFIQFCRDNLHLFSGHLSTLRLSFPNLFKFLAWNSPPLTSEFVALLPALVDAGTALEMLHALLDLPCLTAVLDLQLRSAPAASERPLWDTSLRAPSCLEAFRDPQFQGLFQYLLRPKASGATERLAPLHQLLQPMAGCARVAQCAQAVPTLLQAFFSAVTQVADGSLINQLALLLLGRSDSLYPAPGYAAGVHSVLSSQFLALCTLKPSLVVELARDLLEFLGSVNGLCSRASLVTSVVWAIGEYLSVTYDRRCTVEQINKFFEALEALLFEVTQCRPSAALPRCPPQVVTVLMTTLTKLASRSQDLIPRASLLLSKMRTLAHSPATSSTHSEEGAEAIRTRATELLTLLKMPSVAQFVLTPSTEVCSPRYHRDANTALPLALRTVSRLVEREAGLMPG [AP5Z1]	-0.0926	0.134

Reference: the supplement of paper PMC5998384
